Data as given in patent US11965039B2, “Compstatin analogues and their medical uses” (priority 2018, dated 2024).
Starred links: 1 amine or outer side, 2 acyl side, 3 side chain; linkers in the order of their positions; H or OH if unused. Positions of bridges follow the written chain, without caps; N, C: chain ends. Non-standard residues stand in square brackets, D forms with d. Groups on a side chain read outwards from the residue. No end group written: not given here. *: point of attachment. X1 = K(γGlu-G-γGlu-17-carboxy-heptadecanoyl), O=C(O)CCCCCCCCCCCCCCCCC(=O)N[C@@H](CCC(=O)NCC(=O)N[C@@H](CCC(=O)NCCCC[C@H](N[*:1])C(=O)[*:2])C(=O)O)C(=O)O; Trp(1-Me) = Cn1cc(C[C@H](N)C(=O)O)c2ccccc21; C18 diacid = O=C(O)CCCCCCCCCCCCCCCCC(=O)*; γGlu = O=C(O)[C@H](CCC(=O)[*:2])N[*:1]; 2Nal = N[C@@H](Cc1ccc2ccccc2c1)C(=O)O; AEEA = NCCOCCOCC(=O)O; Sar = CNCC(=O)O

Legend:
[1] = molecular target: T1, Human C3 (Complement tech cat #A113c) (human, UniProt P01024 23-1663); experiment: cell-based or functional assay
T1 sequence (P01024 23-1663 limits assumed): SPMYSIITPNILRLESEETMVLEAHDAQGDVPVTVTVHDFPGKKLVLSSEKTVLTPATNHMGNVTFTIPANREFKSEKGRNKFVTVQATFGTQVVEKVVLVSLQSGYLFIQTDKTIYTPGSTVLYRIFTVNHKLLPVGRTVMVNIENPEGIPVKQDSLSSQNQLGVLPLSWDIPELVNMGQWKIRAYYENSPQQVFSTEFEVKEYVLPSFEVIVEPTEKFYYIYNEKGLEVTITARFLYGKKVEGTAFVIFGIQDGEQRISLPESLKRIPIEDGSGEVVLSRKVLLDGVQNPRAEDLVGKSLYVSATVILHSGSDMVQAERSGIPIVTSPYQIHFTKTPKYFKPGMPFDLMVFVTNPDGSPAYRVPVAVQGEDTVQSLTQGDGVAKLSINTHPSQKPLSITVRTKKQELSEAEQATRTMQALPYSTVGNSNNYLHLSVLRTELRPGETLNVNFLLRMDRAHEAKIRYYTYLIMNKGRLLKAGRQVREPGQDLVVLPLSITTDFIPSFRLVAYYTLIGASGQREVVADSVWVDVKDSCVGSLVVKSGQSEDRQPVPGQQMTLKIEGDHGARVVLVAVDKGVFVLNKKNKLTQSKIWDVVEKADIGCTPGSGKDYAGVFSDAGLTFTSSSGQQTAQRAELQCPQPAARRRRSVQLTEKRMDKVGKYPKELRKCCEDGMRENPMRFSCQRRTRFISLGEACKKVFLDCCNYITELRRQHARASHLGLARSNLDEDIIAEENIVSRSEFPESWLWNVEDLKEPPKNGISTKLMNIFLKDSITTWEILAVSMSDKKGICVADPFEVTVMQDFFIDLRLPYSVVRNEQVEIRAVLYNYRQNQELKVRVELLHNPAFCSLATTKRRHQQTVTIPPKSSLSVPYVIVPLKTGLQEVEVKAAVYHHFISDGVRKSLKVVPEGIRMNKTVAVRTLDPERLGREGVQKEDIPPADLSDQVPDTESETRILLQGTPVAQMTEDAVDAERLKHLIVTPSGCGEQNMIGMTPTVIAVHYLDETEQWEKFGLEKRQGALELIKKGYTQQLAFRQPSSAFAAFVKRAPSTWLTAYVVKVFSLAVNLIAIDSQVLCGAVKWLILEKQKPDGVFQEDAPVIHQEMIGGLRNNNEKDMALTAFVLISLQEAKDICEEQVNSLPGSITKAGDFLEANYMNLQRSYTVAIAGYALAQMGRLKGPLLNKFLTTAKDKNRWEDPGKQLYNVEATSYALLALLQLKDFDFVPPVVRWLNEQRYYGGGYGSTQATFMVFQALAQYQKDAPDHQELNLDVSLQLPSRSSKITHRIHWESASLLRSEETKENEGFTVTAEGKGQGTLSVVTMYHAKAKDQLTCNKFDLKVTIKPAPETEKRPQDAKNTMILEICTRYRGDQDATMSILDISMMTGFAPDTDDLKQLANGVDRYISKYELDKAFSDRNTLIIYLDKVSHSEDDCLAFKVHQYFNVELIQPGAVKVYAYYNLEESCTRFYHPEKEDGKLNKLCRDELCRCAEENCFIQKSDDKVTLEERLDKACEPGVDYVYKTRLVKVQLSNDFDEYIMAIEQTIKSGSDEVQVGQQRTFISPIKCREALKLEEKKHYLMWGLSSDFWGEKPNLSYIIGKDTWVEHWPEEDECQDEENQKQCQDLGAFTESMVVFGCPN

[2] = molecular target: T1, Human C3 (Complement tech cat #A113c); experiment: SPR (Biacore T200), human C3 immobilised, peptide injected, 1:1 fit
Protocol: Surface plasmon resonance (SPR) was used to characterize peptides with respect to their binding affinity (Kd) for C3. Human C3 (Complement tech cat #A113c) was immobilised on individual flow cells of CM5 sensor chips (GE Healthcare) using standard amine coupling to a density of approximately 3000 resonance units (RU) in a buffer consisting of 10 mM phosphate pH 7.4, 150 mM NaCl, 0.05% Tween20.
For interaction experiments a multi-cycle experiment approach was used and performed using a BiacoreT200™ instrument (GE Healthcare) at 25° C. Peptides were injected in increasing concentration series (6-8 different concentrations) for 60-120 sat a flow rate of 30 µL/min in a buffer consisting of 10 mM Tris buffer at pH 7.4, with 150 mM NaCl and 0.05% Tween20. This was followed by a dissociation period for up to 10 min. The C3 surface was regenerated between runs by a 45 s injection of 3 M MgCl_2.

Binder	Kd [2] [nM]	inhibition of hemolysis IC50 [1] [nM]
Ac-SEFCI[Trp(1-Me)]QDWGEHRC[Sar]EGE[AEEA]ES-{X1-NH2} (disulfide 4-14; SMILES CC[C@H](C)[C@@H]1NC(=O)[C@@H](NC(=O)[C@H](Cc2ccccc2)NC(=O)[C@H](CCC(=O)O)NC(=O)[C@H](CO)NC(C)=O)CSSC[C@@H](C(=O)N(C)CC(=O)N[C@@H](CCC(=O)O)C(=O)NCC(=O)N[C@@H](CCC(=O)O)C(=O)NCCOCCOCC(=O)N[C@@H](CCC(=O)O)C(=O)N[C@@H](CO)C(=O)N[C@@H](CCCCNC(=O)CC[C@H](NC(=O)CNC(=O)CC[C@H](NC(=O)CCCCCCCCCCCCCCCCC(=O)O)C(=O)O)C(=O)O)C(N)=O)NC(=O)[C@H](CCCNC(=N)N)NC(=O)[C@H](Cc2c[nH]cn2)NC(=O)[C@H](CCC(=O)O)NC(=O)CNC(=O)[C@H](Cc2c[nH]c3ccccc23)NC(=O)[C@H](CC(=O)O)NC(=O)[C@H](CCC(N)=O)NC(=O)[C@H](Cc2cn(C)c3ccccc23)NC1=O) [Compound 140]	7.6	< 100
Ac-SEFCI[Trp(1-Me)]QDWGEHRC[Sar]EGESESK([γGlu-C18 diacid])-NH2 (disulfide 4-14; SMILES CC[C@H](C)[C@@H]1NC(=O)[C@@H](NC(=O)[C@H](Cc2ccccc2)NC(=O)[C@H](CCC(=O)O)NC(=O)[C@H](CO)NC(C)=O)CSSC[C@@H](C(=O)N(C)CC(=O)N[C@@H](CCC(=O)O)C(=O)NCC(=O)N[C@@H](CCC(=O)O)C(=O)N[C@@H](CO)C(=O)N[C@@H](CCC(=O)O)C(=O)N[C@@H](CO)C(=O)N[C@@H](CCCCNC(=O)CC[C@H](NC(=O)CCCCCCCCCCCCCCCCC(=O)O)C(=O)O)C(N)=O)NC(=O)[C@H](CCCNC(=N)N)NC(=O)[C@H](Cc2c[nH]cn2)NC(=O)[C@H](CCC(=O)O)NC(=O)CNC(=O)[C@H](Cc2c[nH]c3ccccc23)NC(=O)[C@H](CC(=O)O)NC(=O)[C@H](CCC(N)=O)NC(=O)[C@H](Cc2cn(C)c3ccccc23)NC1=O) [Compound 141]	6.6	< 100
Ac-EGSAICI[2Nal]QDWGEHRC[Sar]E-NH2 (disulfide 6-16; SMILES CC[C@H](C)[C@H](NC(=O)[C@H](C)NC(=O)[C@H](CO)NC(=O)CNC(=O)[C@H](CCC(=O)O)NC(C)=O)C(=O)N[C@H]1CSSC[C@@H](C(=O)N(C)CC(=O)N[C@@H](CCC(=O)O)C(N)=O)NC(=O)[C@H](CCCNC(=N)N)NC(=O)[C@H](Cc2c[nH]cn2)NC(=O)[C@H](CCC(=O)O)NC(=O)CNC(=O)[C@H](Cc2c[nH]c3ccccc23)NC(=O)[C@H](CC(=O)O)NC(=O)[C@H](CCC(N)=O)NC(=O)[C@H](Cc2ccc3ccccc3c2)NC(=O)[C@H]([C@@H](C)CC)NC1=O) [Compound 50]	13	< 100
Ac-SEFCI[Trp(1-Me)]QDWGEHRC[Sar]EGESESK([γGlu-Gly-γGlu-C18 diacid])-NH2 (disulfide 4-14; SMILES CC[C@H](C)[C@@H]1NC(=O)[C@@H](NC(=O)[C@H](Cc2ccccc2)NC(=O)[C@H](CCC(=O)O)NC(=O)[C@H](CO)NC(C)=O)CSSC[C@@H](C(=O)N(C)CC(=O)N[C@@H](CCC(=O)O)C(=O)NCC(=O)N[C@@H](CCC(=O)O)C(=O)N[C@@H](CO)C(=O)N[C@@H](CCC(=O)O)C(=O)N[C@@H](CO)C(=O)N[C@@H](CCCCNC(=O)CC[C@H](NC(=O)CNC(=O)CC[C@H](NC(=O)CCCCCCCCCCCCCCCCC(=O)O)C(=O)O)C(=O)O)C(N)=O)NC(=O)[C@H](CCCNC(=N)N)NC(=O)[C@H](Cc2c[nH]cn2)NC(=O)[C@H](CCC(=O)O)NC(=O)CNC(=O)[C@H](Cc2c[nH]c3ccccc23)NC(=O)[C@H](CC(=O)O)NC(=O)[C@H](CCC(N)=O)NC(=O)[C@H](Cc2cn(C)c3ccccc23)NC1=O) [Compound 139]	7.4	< 100
Ac-EGSAICIWQDWGEHRCT-NH2 (disulfide 6-16; SMILES CC[C@H](C)[C@H](NC(=O)[C@H](C)NC(=O)[C@H](CO)NC(=O)CNC(=O)[C@H](CCC(=O)O)NC(C)=O)C(=O)N[C@H]1CSSC[C@@H](C(=O)N[C@H](C(N)=O)[C@@H](C)O)NC(=O)[C@H](CCCNC(=N)N)NC(=O)[C@H](Cc2c[nH]cn2)NC(=O)[C@H](CCC(=O)O)NC(=O)CNC(=O)[C@H](Cc2c[nH]c3ccccc23)NC(=O)[C@H](CC(=O)O)NC(=O)[C@H](CCC(N)=O)NC(=O)[C@H](Cc2c[nH]c3ccccc23)NC(=O)[C@H]([C@@H](C)CC)NC1=O) [Compound 29]	21	< 100
Ac-SEFCI[Trp(1-Me)]QDWGEHRCTEGE (disulfide 4-14; not fully specified (C-terminus); printed as Ac-SEFC(1)I[1-Me-Trp]QDWGEHRC(1)TEGE[Peg3]ES-K([17-carboxy-heptadecanoyl][γGlu])-NH2) [Compound 142]	4.8	< 100

Binders with a lower Kd [2], results first:

Kd [2] [nM]	Binder	inhibition of hemolysis IC50 [1] [nM]
3.3	Ac-FCIWQDWGEHRCTGAE-NH2 (disulfide 2-12; SMILES CC[C@H](C)[C@@H]1NC(=O)[C@@H](NC(=O)[C@H](Cc2ccccc2)NC(C)=O)CSSC[C@@H](C(=O)N[C@H](C(=O)NCC(=O)N[C@@H](C)C(=O)N[C@@H](CCC(=O)O)C(N)=O)[C@@H](C)O)NC(=O)[C@H](CCCNC(=N)N)NC(=O)[C@H](Cc2c[nH]cn2)NC(=O)[C@H](CCC(=O)O)NC(=O)CNC(=O)[C@H](Cc2c[nH]c3ccccc23)NC(=O)[C@H](CC(=O)O)NC(=O)[C@H](CCC(N)=O)NC(=O)[C@H](Cc2c[nH]c3ccccc23)NC1=O) [Compound 43]	< 100
0.33	Ac-FCI[Trp(1-Me)]QDWGEHRCTGAES-NH2 (disulfide 2-12; SMILES CC[C@H](C)[C@@H]1NC(=O)[C@@H](NC(=O)[C@H](Cc2ccccc2)NC(C)=O)CSSC[C@@H](C(=O)N[C@H](C(=O)NCC(=O)N[C@@H](C)C(=O)N[C@@H](CCC(=O)O)C(=O)N[C@@H](CO)C(N)=O)[C@@H](C)O)NC(=O)[C@H](CCCNC(=N)N)NC(=O)[C@H](Cc2c[nH]cn2)NC(=O)[C@H](CCC(=O)O)NC(=O)CNC(=O)[C@H](Cc2c[nH]c3ccccc23)NC(=O)[C@H](CC(=O)O)NC(=O)[C@H](CCC(N)=O)NC(=O)[C@H](Cc2cn(C)c3ccccc23)NC1=O) [Compound 61]	< 100
4.4	Ac-SEFCI[Trp(1-Me)]QDWGEHRCTEGEGGGK([γGlu-Gly-γGlu-C18 diacid])-NH2 (disulfide 4-14; SMILES CC[C@H](C)[C@@H]1NC(=O)[C@@H](NC(=O)[C@H](Cc2ccccc2)NC(=O)[C@H](CCC(=O)O)NC(=O)[C@H](CO)NC(C)=O)CSSC[C@@H](C(=O)N[C@H](C(=O)N[C@@H](CCC(=O)O)C(=O)NCC(=O)N[C@@H](CCC(=O)O)C(=O)NCC(=O)NCC(=O)NCC(=O)N[C@@H](CCCCNC(=O)CC[C@H](NC(=O)CNC(=O)CC[C@H](NC(=O)CCCCCCCCCCCCCCCCC(=O)O)C(=O)O)C(=O)O)C(N)=O)[C@@H](C)O)NC(=O)[C@H](CCCNC(=N)N)NC(=O)[C@H](Cc2c[nH]cn2)NC(=O)[C@H](CCC(=O)O)NC(=O)CNC(=O)[C@H](Cc2c[nH]c3ccccc23)NC(=O)[C@H](CC(=O)O)NC(=O)[C@H](CCC(N)=O)NC(=O)[C@H](Cc2cn(C)c3ccccc23)NC1=O) [Compound 130]	< 100
3.2	Ac-EGSAICI[Trp(1-Me)]QDWGEHRC[Sar]E-NH2 (disulfide 6-16; SMILES CC[C@H](C)[C@H](NC(=O)[C@H](C)NC(=O)[C@H](CO)NC(=O)CNC(=O)[C@H](CCC(=O)O)NC(C)=O)C(=O)N[C@H]1CSSC[C@@H](C(=O)N(C)CC(=O)N[C@@H](CCC(=O)O)C(N)=O)NC(=O)[C@H](CCCNC(=N)N)NC(=O)[C@H](Cc2c[nH]cn2)NC(=O)[C@H](CCC(=O)O)NC(=O)CNC(=O)[C@H](Cc2c[nH]c3ccccc23)NC(=O)[C@H](CC(=O)O)NC(=O)[C@H](CCC(N)=O)NC(=O)[C@H](Cc2cn(C)c3ccccc23)NC(=O)[C@H]([C@@H](C)CC)NC1=O) [Compound 49]	< 100
2.8	Ac-FCIWQDWGEHRCT-NH2 (disulfide 2-12; SMILES CC[C@H](C)[C@@H]1NC(=O)[C@@H](NC(=O)[C@H](Cc2ccccc2)NC(C)=O)CSSC[C@@H](C(=O)N[C@H](C(N)=O)[C@@H](C)O)NC(=O)[C@H](CCCNC(=N)N)NC(=O)[C@H](Cc2c[nH]cn2)NC(=O)[C@H](CCC(=O)O)NC(=O)CNC(=O)[C@H](Cc2c[nH]c3ccccc23)NC(=O)[C@H](CC(=O)O)NC(=O)[C@H](CCC(N)=O)NC(=O)[C@H](Cc2c[nH]c3ccccc23)NC1=O) [Compound 23]	< 100
